Several values for one entry are separate records, joined by “and”; a condition that tells them apart may be missing. Identical values can stand only once.
Experiments:
[1] = system: human microvascular endothelial cells (HMVECs); test: VEGF-induced migration of HMVECs, modified Boyden chamber; type: cell-based; conditions: 100 ng/ml, VEGF 5 ng/ml
Method: Endostatin peptides were tested for anti-endothelial cell migration activity. Inhibition of VEGF-induced migration of human microvascular endothelial cells (HMVECs) was determined using several doses of endostatin peptides (FIG. 5). Human peptides were used because the cells were of human origin and the migration response of the HMVECs was assayed using a modified Boyden chamber. VEGF (5 ng/ml) was used a chemotactic agent and cells were challenged with human endostatin (Entremed; EM-ES), human Fc-Endostatin (nFcES), human P1 (hP1), human P2 (hP2), human P6 (hP6), and human P1-H1/3A (hP1-H1/3A). Total migration per membrane was quantified from the capture images using Scion Image Software (National Institutes of Health) and the unpaired Student T test was used for statistical analysis. […] No significant differences in inhibition between these concentrations were observed. At higher and lower concentrations less or no inhibition was observed. At 500 ng/ml of hP1 no inhibition was observed. Thus, similar to full-length endostatin, there is a U-shaped response to hP1 inhibition of EC migration.
The motility response of HMVEC-d cells was assayed using a modified Boyden chamber. Cells were plated in T75-cm2 flasks at 0.5×10^6 cells per flask and allowed to grow for 48 h (˜70% confluent) prior to the migration assay. To facilitate cell adhesion, the upper membrane of a transwell ([…]; Costar) was coated with fibronectin ([…]; Becton Dickinson, Bedford, Mass.) for 1 h at 37° C. Coated membranes were rinsed with PBS and allowed to air dry immediately before use. Cells were detached by trypsinization, treated with trypsinization neutralization solution (Clonetics), and resuspended at a final concentration of 1×10^6 cells/ml in serum-free endothelial basal medium (EBM; Clonetics) containing 0.1% BSA. Cells (200,000 in 0.2 ml) were then treated with 0.2 ml of EBM/BSA containing endostatin or peptides at the indicated concentrations. Cells were incubated for 20 min. at 37° C. with occasional shaking. Cells (50,000 in 100 μl) were added to the upper chamber of the transwell. EBM or EBM supplemented with VEGF (5 ng/ml) was added to the lower chamber and cells were allowed to migrate toward the bottom chamber for 4 h in a humidified incubator containing 5% CO2. Transwell filters were rinsed once with PBS and fixed and stained using a Diff-Quik staining kit (Baxter) following the manufacturer's protocol. Non-migrated cells were removed from the upper chamber with a cotton swab. Stained filters were cut out of the chamber and mounted onto slides using Permount (Fisher). The number of migrated cells was measured using microscopy (three fields from each membrane were captured using a 40× objective), and images were captured with a CCD camera using SPOT software. Total migration per membrane was quantified from the captured images using Scion Image software (National Institutes of Health). All experiments were run in triplicate. The unpaired Student t-test was used for statistical analysis.

[2] = system: human umbilical vein endothelial cells (HUVEC); test: VEGF stimulated migration of HUVEC, modified Boyden chambers; type: cell-based; conditions: FIG. 13
Method: Cell migration assays were performed using modified Boyden chambers (6.5-mm diameter, 10-μm thickness, 8-μm pores, Transwell-Costar Corp., Cambridge, Mass.) coated with 10 μg/ml fibronectin in PBS overnight at 4° C. and rinsed with PBS. Subconfluent cells were trypsinized (0.01% trypsin/5 mM EDTA), neutralized with trypsin neutralization solution (Cascade Biologics Inc., Portland, Oreg.), washed, and resuspended in endothelial basal medium (EBM; Clonetics) with 0.1% BSA in the presence or absence of human endostatin (40, 200, 1000 ng/ml). In a second experiment we added either 600 ng/ml human endostatin or mP-1 at various doses (60, 200, 600 ng/ml). Cells were maintained in suspension for 30 min, added to the top of each migration chamber and allowed to migrate for 4 h in the presence or absence of VEGF (5 ng/ml) in lower chamber. Adherent cells were fixed and stained using the Hema-3 Stain System (Fisher Diagnostics, Middletown, Va.), following manufacturer's instructions. Non-migratory cells were removed with a cotton swab, and the number of migratory cells per membrane was captured using bright field microscopy connected to a Spot digital camera (Diagnostic Instruments, Sterling Heights, Mich.). Migrated cells from the captured image were counted using NIH image software. […]

[3] = system: Female SCID mice; test: Fertility, pregnancy and offspring in tumor-bearing female SCID mice
Method: Female SCID mice were injected with human pancreatic tumor cells subcutaneously. When tumors reached a volume of approximately 100 mm^3 endostatin or placebo treatment was initiated and continued until the end of the study. After three days, females were mated.
Human BxPC-3 cells were grown in cells culture as described above. After washing with sterile PBS, cells were trypsinized and briefly re-suspended in RPMI 1640 medium containing 10% fetal calf serum (FCS) and 1% glutamine penicillin streptomycin (GPS) solution. After centrifuging, the cell concentration was adjusted to 50×10^6 cells/ml in additive-free RPMI 1640 medium and kept on ice. Female SCID mice were shaved on the dorsal side and the naked skin was cleaned with ethanol prior to injection. A suspension of 5×10^6 cells/ml in 100 μl was then injected subcutaneously into the dorsa of these mice at about one centimetre left of the midline.
Mice were weighed and tumors were measured every 7 days in two diameters using a dial-caliper. Tumor volumes were calculated using the formula a^2×b×0.52, while a being the shorter and b being the longer diameter. When tumors had reached a volume of approximately 100 mm^2 mice were divided into four groups.
During the first experiment, one group received endostatin (20 mg/kg; n=8) or vehicle (n=8) via subcutaneous osmotic pumps (Durect Corp., Cupertino, Calif.). Pumps were inserted via a small incision and placed into a subcutaneous pocket on the right lateral aspect of the animals' dorsa. The pumps were changed every week for a total of four weeks.
The other group received daily subcutaneous injections of endostatin (100 mg/kg, n=5) or vehicle (n=5) for the same period.
During a second study we repeated the experiment with endostatin in subcutaneous pumps. The other group in this series received the murine N-terminal fragment of endostatin (mP-1) at a dose of 2.5 mg/kg twice daily or PBS (n=5 each).
Three days after initiation of treatment female mice were added to a cage containing a male SCID mouse in a 1:1 ratio. All males had been housed separately three days prior to encountering the females and female bedding had been added to the male cages to enhance the males' libido.
For the following seven days every female was checked for a vaginal mucous plug as a sign of mating. These exams were performed during the early morning hours to optimize the results. Once a mucous plug had been noticed, mating was considered ‘successful’, and the female was not further examined in order to minimize iatrogenic stress.
Over the course of pregnancy the following parameters were assessed: ‘Mating Time’ describing the time between male encounter and the occurrence of a mucous plug; ‘Pregnancy Rate’, measured by ultrasound 15 days after the mucous plug was observed. The number of viable fetus was counted during this procedure; ‘Length of Pregnancy’, as measured from the time of successful mating to delivery; ‘Number of Total and Viable Litter’, counted on the day of birth; ‘Weight of Individual Pup’, by weighing the entire litter on the day of birth and calculating the mean weight.

B1: human endostatin (EntreMed): recombinant human endostatin, gift from EntreMed Corporation (protein, listed as Homo sapiens)
chain: HSHRDFQPVLHLVALNSPLSGGMRGIRGADFQCFQQARAVGLAGTFRAFLSSRLQDLYSIVRRADRAAVPIVNLKDELLFPSWEALFSGSEGPLKPGARIFSFNGKDVLTHPTWPQKSVWHGSDPNGRRLTESYCETWRTEAPSATGQAYSLLGGRLLGQSAASCHHAYIVLCIENSFMTASK
[1]
  inhibition of EC migration: not at 100 ng/ml
[2]
  migration of HUVEC: inhibit migration
[3]; endostatin pumps, two experiments
  mean length of pregnancy: 20.6 ± 1.2 days and 20.75 ± 2 days
[3]; injection group
  pregnancy rate with live births: 60%
[3]; injection studies, PBS 4.2±2.4
  litter size per delivery: 5±1
[3]; offspring of treated mice
  effect on the offspring: did not see any negative effect on the offspring
[3]; pump group, PBS 4.6±1.7
  litter size per delivery: 5±1.8
[3]; pump groups, PBS 1.4
  mean weight of pups on the day of delivery: 1.51 g
[3]; s.c. injections (endostatin 100 mg/kg daily; mP-1 2.5 mg/kg twice daily), PBS 1.9±0.9
  mating time: 2.8 ± 1.5 days
[3]; s.c. osmotic pumps (endostatin 20 mg/kg), PBS 2.0±1
  mating time: 2.6 ± 1.4 days

Reference: patent publication US7645735B2, “Anti-angiogenic peptides for treating or preventing endometriosis” (Children's Medical Center Corporation, priority 2003, dated 2010)
